# Laboratory results taken from US7893027B2, “Treatment of ocular wounds and ulcers” (The Board of Regents of the University of Oklahoma, priority 2002, dated 2011).
# B1: CAP37: Cationic Antimicrobial Protein of Mr 37 kDa; recombinant protein from human 293 cells, identical to native PMN-derived CAP37 (SEQ ID NO:1) (protein, listed as Homo sapiens)
# chain: IVGGRKARPRQFPFLASIQNQGRHFCGGALIHARFVMTAASCFQSQNPGVSTVVLGAYDLRRRERQSRQTFSISSMSENGYDPQQNLNDLMLLQLDREANLTSSVTILPLPLQNATVEAGTRCQVAGWGSQRSGGRLSRFPRFVNVTVTPEDQCRPNNVCTGVLTRRGGICNGDGGTPLVCEGLAHGVASFSLGPCGRGPDFFTRVALFRDWIDGVLNNPGP
# How the values were obtained:
# Format in all cases: cell-based, human
# [1] = tested on: ICAM-1; assay: Flow cytometry of ICAM-1 expression on HCEC; conditions: for Upregulation of ICAM-1: 1000 ng/ml
# Method: Flow cytometry was used to assess the upregulation of ICAM-1 and VCAM-1 on HCEC in response to CAP37 treatment. HCEC were cultured as described above and treated with CAP37 (0-2000 ng/ml) for 0, 2, 6, 24, 48 and 72 hr. A corresponding culture was left untreated at each time point. Following treatment with CAP37, cells were detached with 5 mM EDTA (pH 7.4, Fisher Scientific), washed twice in PBS and fixed with 0.125% paraformaldehyde (J.T. Baker, Phillipsburg, N.J.) overnight at 4° C. The cells were washed in PBS and then incubated in 0.5% normal goat serum and 0.5% BSA in PBS for 30 min to block non-specific binding sites. For determination of ICAM-1 expression, cells were incubated in the primary antibody (FITC-labeled mouse anti-human ICAM-1, BIOSOURCE, Camarillo, Calif.) at 10^6 cells/10 μl at 4° C. for 1 hr. Cells were washed in PBS and analyzed by flow cytometry (FACSTAR, BECTON DICKINSON, San Jose, Calif.). For detection of VCAM-1 expression, cells were incubated with unlabeled primary antibody (monoclonal mouse anti human VCAM-1, ENDOGEN, Woburn, Mass. at 2 μg/10^6 cells) followed by FITC-labeled goat anti-mouse IgG (PHARMINGEN, San Diego, Calif.) at 5 μg/10^6 cells and incubated at 4° C. for 30 min. The isotype control for these studies was FITC-labeled mouse isotype IgG1 (PHARMINGEN). The positive control used in these studies was TNF-α (5 ng/ml). At least ten thousand cells were analyzed for each sample.
# [2] = tested on: VCAM-1; assay: RT-PCR of adhesion molecule mRNA in HCEC; conditions: CAP37 1 μg/ml, 0-24 hr
# Method: (§1) Cultured HCEC were treated with CAP37 (1 μg/ml) for 0-24 hr at 37° C. Total cellular RNA was isolated from untreated and treated HCEC according to vendor specifications (TRIzol™, GIBCO BRL). After reverse-transcription of 5 μg of total RNA by SuperScript™ II RT (GIBCOBRL) the resulting single stranded cDNA was amplified by PCR (BIOMETRA TGRADIENT, Göttingen, Germany) using specific primers for ICAM-1 (([…] (SEQ ID NO:11) and […] (SEQ ID NO:12)); VCAM-1 (([…] (SEQ ID NO:13) and […] (SEQ ID NO:14)); PECAM-1 (([…] (SEQ ID NO:15) and […] (SEQ ID NO:16)); E-selectin (([…] (SEQ ID NO:17) and […] (SEQ ID NO:18)); and β-actin ((TACCTCATGAAGATCCTCA (SEQ ID NO:19) and TTCGTGGATGCCACAGGAC (SEQ ID NO:20))) synthesized by the Molecular Biology Resource Facility, University of Oklahoma Health Sciences Center. The thermocycler conditions for ICAM-1 and VCAM-1 were 95° C. for 5 min initially, with 30 cycles at 95° C. for 1 min, 58° C. for 45 sec, 72° C. for 1 min followed by a final extension at 72° C. for 7 min. The conditions for E-selectin were 95° C. for 5 min initially, with 30 cycles at 94° C. for 1 min, 58° C. for 1 min, 72° C. for 1 min followed by a final extension at 72° C. for 5 min. The conditions for PECAM-1 were 95° C. for 5 min initially, with 30 cycles at 95° C. for 45 sec, 60° C. for 1 min, 72° C. for 1 min followed by a final extension at 72° C. for 5 min.
# (§2) Amplified DNA fragments were separated by electrophoresis on a 1% agarose gel and visualized by exposure to UV after ethidium bromide (0.5 μg/ml) staining. Expected sizes for ICAM-1, VCAM-1, PECAM-1, E-selectin and β-actin were 943 bp, 700 bp, 677 bp, 315 bp and 267 bp, respectively. To assess the integrity of the cDNA, primers for human β-actin were used.
# [3] = tested on: E-selectin; assay: RT-PCR of adhesion molecule mRNA in HCEC; conditions: CAP37 1 μg/ml, 0-24 hr
# Method: as §1, §2
# [4] = tested on: ICAM-1; assay: RT-PCR of adhesion molecule mRNA in HCEC; conditions: CAP37 1 μg/ml, beginning at 2 hr and lasting through 24 hr
# Method: as §1, §2
# [5] = tested on: PECAM-1; assay: RT-PCR of adhesion molecule mRNA in HCEC; conditions: CAP37 1 μg/ml
# Method: as §1, §2
molecule,measurement,setting,value
B1,Upregulation of ICAM-1,[1]; 2 hr,no upregulation of ICAM-1 could be detected
same,Upregulation of ICAM-1,[1]; 6 hr,significant upregulation of ICAM-1
same,Upregulation of ICAM-1,[1]; 24 hr,still above the untreated levels
same,ICAM-1 levels relative to positive control,"[1]; 1000-2000 ng/ml, TNF-α 5 ng/ml as positive control",comparable to those obtained with the positive control TNF-α
same,Concentration giving maximum upregulation of ICAM-1,"[1]; HCEC, 6 hr, flow cytometry",1000 to 2000 ng/mL
same,ICAM-1 levels,[1]; concentrations between 10 and 500 ng/ml,"Lower, yet significant levels of ICAM-1"
same,mRNA expression of VCAM-1,[2],did not show increase in mRNA expression
same,mRNA expression of E-selectin,[3],did not show increase in mRNA expression
same,ICAM-1 message,[4],clear upregulation of ICAM-1 message
same,Time PECAM-1 message first detected after stimulation,[5],2 h
same,Time of maximum PECAM-1 message,[5],4 h
same,PECAM-1 message,"[5]; transient, not detected after 6 hr",upregulated
